# Data taken from the supplement of paper PMC9112550, “Optimization of the antimicrobial peptide Bac7 by deep mutational scanning” (BMC Biology, 2022).
# System: Escherichia coli TOP10
# Experiment: shrunken log2 fold change of peptide-encoding DNA abundance (4.5 h post-induction vs induction); higher = less antimicrobial activity (less host growth inhibition)
# Conditions: time post-induction: 4.5 h; library: site-saturation at positions 5, 18, 19, 20
# 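Note: peptides expressed intracellularly from a pBAD plasmid library in pooled LB shake-flask culture, induced with 0.3% L-arabinose, DNA abundance read by NGS, three biological replicates, DESeq2 with apeglm shrinkage.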
row,Sequence,shrunken log2 fold change
1,RRIRGRPPRLPRPRPRPNGTPRP,0.54
2,RRIRERPPRLPRPRPRPKNFPRP,-0.311
3,RRIRYRPPRLPRPRPRPFWWPRP,-0.102
4,RRIRMRPPRLPRPRPRPQVPPRP,-0.0842
5,RRIRWRPPRLPRPRPRPPRRPRP,0.642
6,RRIRSRPPRLPRPRPRPWRPPRP,0.0563
7,RRIRTRPPRLPRPRPRPRQPPRP,0.135
8,RRIRPRPPRLPRPRPRPRSRPRP,0.386
9,RRIRFRPPRLPRPRPRPFPVPRP,-0.0374
10,RRIRRRPPRLPRPRPRPQLSPRP,0.976
11,RRIRHRPPRLPRPRPRPAEGPRP,-0.00235
12,RRIRFRPPRLPRPRPRPCFNPRP,-0.385
13,RRIRTRPPRLPRPRPRPSTCPRP,-0.175
14,RRIRIRPPRLPRPRPRPEWYPRP,-0.142
15,RRIRCRPPRLPRPRPRPWVWPRP,-0.00389
16,RRIRYRPPRLPRPRPRPVEPPRP,-0.384
17,RRIRSRPPRLPRPRPRPMCEPRP,-0.0274
18,RRIRRRPPRLPRPRPRPNAMPRP,0.258
19,RRIRERPPRLPRPRPRPKYEPRP,-0.303
20,RRIRPRPPRLPRPRPRPPYLPRP,-0.376
21,RRIRFRPPRLPRPRPRPANYPRP,-0.43
22,RRIRMRPPRLPRPRPRPDNMPRP,0.0905
23,RRIRVRPPRLPRPRPRPYQYPRP,-0.0296
24,RRIRCRPPRLPRPRPRPDHQPRP,-0.172
25,RRIRERPPRLPRPRPRPMTVPRP,-0.124

row,Sequence,shrunken log2 fold change
1,RRIRWRPPRLPRPRPRPKCNPRP,0.136
2,RRIRHRPPRLPRPRPRPATMPRP,-0.123
3,RRIRSRPPRLPRPRPRPIKYPRP,-0.654
4,RRIRTRPPRLPRPRPRPLTYPRP,0.959
5,RRIRLRPPRLPRPRPRPDTPPRP,0.0881
6,RRIRNRPPRLPRPRPRPVKNPRP,-0.157
7,RRIRCRPPRLPRPRPRPVEHPRP,0.0272
8,RRIRLRPPRLPRPRPRPYPMPRP,0.00832
9,RRIRKRPPRLPRPRPRPDLVPRP,0.662
10,RRIRYRPPRLPRPRPRPPVIPRP,-0.0623
11,RRIRDRPPRLPRPRPRPEEEPRP,0.00884
12,RRIRVRPPRLPRPRPRPSGEPRP,0.0818
13,RRIRVRPPRLPRPRPRPESQPRP,-0.0489
14,RRIRNRPPRLPRPRPRPATYPRP,-1.05
15,RRIRWRPPRLPRPRPRPDMKPRP,0.0231
16,RRIRSRPPRLPRPRPRPTDVPRP,0.0781
17,RRIRQRPPRLPRPRPRPDCHPRP,-0.0897
18,RRIRERPPRLPRPRPRPDCRPRP,0.0169
19,RRIRIRPPRLPRPRPRPDPCPRP,-0.224
20,RRIRNRPPRLPRPRPRPQVKPRP,0.0117
21,RRIRGRPPRLPRPRPRPNPNPRP,0.215
22,RRIRQRPPRLPRPRPRPQQCPRP,-0.132
23,RRIRARPPRLPRPRPRPRPAPRP,0.76
24,RRIRYRPPRLPRPRPRPQVDPRP,-0.205
25,RRIRLRPPRLPRPRPRPTTQPRP,0.216

row,Sequence,shrunken log2 fold change
1,RRIRLRPPRLPRPRPRPFVNPRP,-0.372
2,RRIRFRPPRLPRPRPRPKFFPRP,-0.00377
3,RRIRGRPPRLPRPRPRPDIAPRP,0.782
4,RRIRDRPPRLPRPRPRPMLPPRP,0.16
5,RRIRTRPPRLPRPRPRPHQFPRP,-0.738
6,RRIRSRPPRLPRPRPRPRGHPRP,-0.0222
7,RRIRCRPPRLPRPRPRPTPAPRP,0.933
8,RRIRMRPPRLPRPRPRPRWCPRP,0.273
9,RRIRERPPRLPRPRPRPHYWPRP,-0.353
10,RRIRSRPPRLPRPRPRPGKQPRP,0.00846
11,RRIRLRPPRLPRPRPRPKTAPRP,0.037
12,RRIRSRPPRLPRPRPRPEIPPRP,2.86
13,RRIRERPPRLPRPRPRPWKMPRP,0.00355
14,RRIRKRPPRLPRPRPRPWFQPRP,-0.0934
15,RRIRDRPPRLPRPRPRPLGHPRP,0.0421
16,RRIRARPPRLPRPRPRPKVDPRP,-0.0797
17,RRIRWRPPRLPRPRPRPWISPRP,-0.124
18,RRIRIRPPRLPRPRPRPCICPRP,-0.148
19,RRIRFRPPRLPRPRPRPINFPRP,-0.601
20,RRIRFRPPRLPRPRPRPLEEPRP,-0.0138
21,RRIRGRPPRLPRPRPRPTMYPRP,0.032
22,RRIRNRPPRLPRPRPRPFDHPRP,-0.0345
23,RRIRNRPPRLPRPRPRPSHQPRP,-0.374
24,RRIRKRPPRLPRPRPRPGLTPRP,1.08
25,RRIRTRPPRLPRPRPRPSKWPRP,-0.0672
